{"source": "the Human Domainome abundance scans (Beltran et al. 2025)", "parents": {"B1": {"name": "Far upstream element-binding protein 3, residues 75 to 150; numbered along this chain, Q96I24 (parent)", "chain": "RTVITEEFKVPDKMVGFIIGRGGEQISRIQAESGCKIQIASESSGIPERPCVLTGTPESIEQAKRLLGQIVDRCRN"}}, "note": "± gives the uncertainty stated by the source."}
{"variants_of": "B1", "experiment": "abundance fitness (aPCA) (normalised: wild type 0, dead -1); higher = more abundant; growth selection in yeast, the domain comes from the species named", "conditions": "Homo sapiens"}
{"variant": "G34W", "abundance fitness": "-0.665 ± 0.048"}
{"variant": "G34A", "abundance fitness": "-0.124 ± 0.031"}
{"variant": "I26R", "abundance fitness": "-0.251 ± 0.027"}
{"variant": "I26Y", "abundance fitness": "-0.288 ± 0.062"}
{"variant": "T5F", "abundance fitness": "-0.201 ± 0.073"}
{"variant": "V10L", "abundance fitness": "-0.036 ± 0.029"}
{"variant": "V10P", "abundance fitness": "-0.514 ± 0.044"}
{"variant": "V10W", "abundance fitness": "-0.295 ± 0.032"}
{"variant": "F8V", "abundance fitness": "-0.064 ± 0.029"}
{"variant": "F8L", "abundance fitness": "-0.097 ± 0.03"}
{"variant": "F8S", "abundance fitness": "-0.18 ± 0.037"}
{"variant": "I60V", "abundance fitness": "-0.025 ± 0.03"}
{"variant": "V71R", "abundance fitness": "-0.151 ± 0.026"}
{"variant": "V71L", "abundance fitness": "-0.092 ± 0.034"}
{"variant": "N76W", "abundance fitness": "-0.092 ± 0.056"}
{"variant": "N76R", "abundance fitness": "0.055 ± 0.042"}
{"variant": "Q25G", "abundance fitness": "-0.058 ± 0.026"}
{"variant": "Q25M", "abundance fitness": "-0.036 ± 0.046"}
{"variant": "Q25E", "abundance fitness": "-0.024 ± 0.036"}
{"variant": "Q25V", "abundance fitness": "-0.08 ± 0.032"}
{"variant": "A40T", "abundance fitness": "-0.04 ± 0.038"}
{"variant": "I4H", "abundance fitness": "-0.146 ± 0.052"}
{"variant": "I4W", "abundance fitness": "-0.125 ± 0.033"}
{"variant": "I4T", "abundance fitness": "-0.045 ± 0.041"}
{"variant": "G16C", "abundance fitness": "-0.074 ± 0.041"}
{"variant": "G16E", "abundance fitness": "-0.001 ± 0.034"}
{"variant": "G16F", "abundance fitness": "-0.223 ± 0.063"}
{"variant": "G16Y", "abundance fitness": "-0.135 ± 0.058"}
{"variant": "P47W", "abundance fitness": "-0.084 ± 0.032"}
{"variant": "P47T", "abundance fitness": "-0.063 ± 0.036"}
{"variant": "P47L", "abundance fitness": "-0.043 ± 0.03"}
{"variant": "E6I", "abundance fitness": "-0.111 ± 0.057"}
{"variant": "E6W", "abundance fitness": "-0.375 ± 0.033"}
{"variant": "R28A", "abundance fitness": "-0.024 ± 0.029"}
{"variant": "R28F", "abundance fitness": "-0.218 ± 0.067"}
{"variant": "E42R", "abundance fitness": "0.005 ± 0.029"}
{"variant": "E42Q", "abundance fitness": "-0.035 ± 0.042"}
{"variant": "Q30Y", "abundance fitness": "-0.31 ± 0.067"}
{"variant": "Q30F", "abundance fitness": "-0.464 ± 0.084"}
{"variant": "Q30T", "abundance fitness": "-0.11 ± 0.043"}
{"variant": "I37C", "abundance fitness": "-0.239 ± 0.04"}
{"variant": "I37D", "abundance fitness": "-0.528 ± 0.051"}
{"variant": "V52Q", "abundance fitness": "0.043 ± 0.043"}
{"variant": "G20N", "abundance fitness": "-0.17 ± 0.09"}
{"variant": "V15M", "abundance fitness": "-0.073 ± 0.043"}
{"variant": "V15T", "abundance fitness": "-0.158 ± 0.038"}
{"variant": "V15P", "abundance fitness": "-0.37 ± 0.049"}
{"variant": "V15Q", "abundance fitness": "-0.162 ± 0.043"}
{"variant": "K9I", "abundance fitness": "-0.106 ± 0.059"}
{"variant": "K9V", "abundance fitness": "-0.047 ± 0.028"}
{"variant": "A31N", "abundance fitness": "-0.044 ± 0.063"}
{"variant": "A31E", "abundance fitness": "0.025 ± 0.034"}
{"variant": "I46S", "abundance fitness": "-0.018 ± 0.035"}
{"variant": "I46N", "abundance fitness": "0.031 ± 0.056"}
{"variant": "P50G", "abundance fitness": "-0.014 ± 0.026"}
{"variant": "P11Q", "abundance fitness": "-0.235 ± 0.04"}
{"variant": "P11M", "abundance fitness": "-0.259 ± 0.043"}
{"variant": "P11E", "abundance fitness": "-0.109 ± 0.041"}
{"variant": "I18Q", "abundance fitness": "-0.234 ± 0.04"}
{"variant": "I18G", "abundance fitness": "-0.272 ± 0.027"}
{"variant": "I18F", "abundance fitness": "-0.133 ± 0.064"}
{"variant": "L67C", "abundance fitness": "-0.397 ± 0.046"}
{"variant": "L67I", "abundance fitness": "-0.131 ± 0.075"}
{"variant": "C51M", "abundance fitness": "-0.068 ± 0.043"}
{"variant": "Q38Y", "abundance fitness": "-0.172 ± 0.077"}
{"variant": "R75L", "abundance fitness": "-0.039 ± 0.035"}
{"variant": "R75F", "abundance fitness": "0.003 ± 0.073"}
{"variant": "K13N", "abundance fitness": "0.004 ± 0.057"}
{"variant": "K13A", "abundance fitness": "-0.054 ± 0.03"}
{"variant": "E48C", "abundance fitness": "-0.158 ± 0.041"}
{"variant": "G55Q", "abundance fitness": "-1.18 ± 0.083"}
{"variant": "G55K", "abundance fitness": "-0.972 ± 0.063"}
{"variant": "G55S", "abundance fitness": "-0.827 ± 0.045"}
{"variant": "G22Q", "abundance fitness": "-0.085 ± 0.044"}
{"variant": "G22S", "abundance fitness": "-0.078 ± 0.034"}
{"variant": "G22A", "abundance fitness": "-0.045 ± 0.031"}
{"variant": "G22K", "abundance fitness": "-0.007 ± 0.045"}
{"variant": "S27I", "abundance fitness": "-0.187 ± 0.074"}
{"variant": "S27Q", "abundance fitness": "-0.066 ± 0.05"}
{"variant": "S27N", "abundance fitness": "0.023 ± 0.073"}
{"variant": "L66F", "abundance fitness": "-0.16 ± 0.07"}
{"variant": "L66R", "abundance fitness": "-0.061 ± 0.028"}
{"variant": "L66A", "abundance fitness": "-0.036 ± 0.033"}
{"variant": "L66Y", "abundance fitness": "-0.078 ± 0.06"}
{"variant": "G68C", "abundance fitness": "-0.066 ± 0.048"}
{"variant": "G68F", "abundance fitness": "-0.17 ± 0.058"}
{"variant": "R65G", "abundance fitness": "-0.053 ± 0.026"}
{"variant": "R65A", "abundance fitness": "-0.031 ± 0.033"}
{"variant": "R65L", "abundance fitness": "-0.017 ± 0.03"}
{"variant": "V3F", "abundance fitness": "-0.066 ± 0.065"}
{"variant": "A63Y", "abundance fitness": "-1.59 ± 0.33"}
{"variant": "E24C", "abundance fitness": "0.031 ± 0.042"}
{"variant": "E24L", "abundance fitness": "-0.112 ± 0.031"}
{"variant": "E24P", "abundance fitness": "-0.271 ± 0.045"}
{"variant": "Q62H", "abundance fitness": "-0.011 ± 0.037"}
{"variant": "Q62R", "abundance fitness": "-0.043 ± 0.03"}
{"variant": "Q62L", "abundance fitness": "-0.044 ± 0.03"}
{"variant": "Q62K", "abundance fitness": "-0.019 ± 0.043"}
{"variant": "Q62F", "abundance fitness": "-0.043 ± 0.038"}
{"variant": "S41G", "abundance fitness": "-0.015 ± 0.026"}
{"variant": "C74S", "abundance fitness": "-0.01 ± 0.032"}
{"variant": "C74R", "abundance fitness": "0.008 ± 0.027"}
{"variant": "I19A", "abundance fitness": "-0.074 ± 0.034"}
{"variant": "I19T", "abundance fitness": "-0.039 ± 0.044"}
{"variant": "I19R", "abundance fitness": "-0.045 ± 0.03"}
{"variant": "I19C", "abundance fitness": "-0.093 ± 0.047"}
{"variant": "G45L", "abundance fitness": "-0.124 ± 0.029"}
{"variant": "G45E", "abundance fitness": "-0.052 ± 0.032"}
{"variant": "G45S", "abundance fitness": "-0.051 ± 0.032"}
{"variant": "G45M", "abundance fitness": "-0.101 ± 0.037"}
{"variant": "G45K", "abundance fitness": "-0.093 ± 0.037"}
{"variant": "C35P", "abundance fitness": "-0.758 ± 0.07"}
{"variant": "C35N", "abundance fitness": "-0.539 ± 0.11"}
{"variant": "S59D", "abundance fitness": "-0.1 ± 0.058"}
{"variant": "S59Y", "abundance fitness": "-0.675 ± 0.077"}
{"variant": "T54G", "abundance fitness": "-0.512 ± 0.041"}
{"variant": "T54P", "abundance fitness": "-1.15 ± 0.12"}
{"variant": "R73W", "abundance fitness": "-0.089 ± 0.039"}
{"variant": "R73N", "abundance fitness": "0.037 ± 0.066"}
{"variant": "R73F", "abundance fitness": "-0.103 ± 0.059"}
{"variant": "R73Y", "abundance fitness": "-0.151 ± 0.058"}
{"variant": "R49L", "abundance fitness": "-0.19 ± 0.032"}
{"variant": "R49S", "abundance fitness": "-0.141 ± 0.036"}
{"variant": "R49K", "abundance fitness": "-0.099 ± 0.047"}
{"variant": "R21Q", "abundance fitness": "-0.009 ± 0.041"}
{"variant": "R21K", "abundance fitness": "-0.025 ± 0.043"}
{"variant": "G23T", "abundance fitness": "-0.1 ± 0.036"}
{"variant": "G23K", "abundance fitness": "-0.082 ± 0.039"}
{"variant": "G23F", "abundance fitness": "-0.117 ± 0.056"}
{"variant": "G23N", "abundance fitness": "-0.058 ± 0.078"}
{"variant": "G23C", "abundance fitness": "-0.17 ± 0.04"}
{"variant": "E58K", "abundance fitness": "0.045 ± 0.073"}
{"variant": "E58S", "abundance fitness": "-0.05 ± 0.039"}
{"variant": "I29A", "abundance fitness": "-0.213 ± 0.032"}
{"variant": "I29W", "abundance fitness": "-0.521 ± 0.034"}
{"variant": "I29F", "abundance fitness": "-0.278 ± 0.054"}
{"variant": "I29L", "abundance fitness": "-0.034 ± 0.031"}
{"variant": "K64E", "abundance fitness": "-0.388 ± 0.038"}
{"variant": "K64I", "abundance fitness": "-0.275 ± 0.064"}
{"variant": "P57N", "abundance fitness": "-0.1 ± 0.082"}
{"variant": "P57T", "abundance fitness": "0.006 ± 0.048"}
{"variant": "P57A", "abundance fitness": "-0.013 ± 0.038"}
{"variant": "D12G", "abundance fitness": "-0.095 ± 0.027"}
{"variant": "D12N", "abundance fitness": "-0.004 ± 0.058"}
{"variant": "E61V", "abundance fitness": "-0.046 ± 0.03"}
{"variant": "Q69H", "abundance fitness": "0.021 ± 0.059"}
{"variant": "Q69S", "abundance fitness": "-0.002 ± 0.031"}
{"variant": "Q69I", "abundance fitness": "0.02 ± 0.062"}
{"variant": "Q69G", "abundance fitness": "-0.012 ± 0.03"}
{"variant": "S33C", "abundance fitness": "-0.079 ± 0.039"}
{"variant": "S33T", "abundance fitness": "-0.063 ± 0.042"}
{"variant": "R1F", "abundance fitness": "-0.059 ± 0.087"}
{"variant": "L53W", "abundance fitness": "-1.42 ± 0.13"}
{"variant": "L53P", "abundance fitness": "-1.32 ± 0.17"}
{"variant": "L53I", "abundance fitness": "-0.016 ± 0.077"}
{"variant": "D72M", "abundance fitness": "-0.084 ± 0.042"}
{"variant": "T2L", "abundance fitness": "-0.05 ± 0.034"}
{"variant": "T2P", "abundance fitness": "-0.106 ± 0.044"}
{"variant": "I70N", "abundance fitness": "-0.261 ± 0.087"}
{"variant": "I70F", "abundance fitness": "-0.044 ± 0.05"}
{"variant": "I70D", "abundance fitness": "-0.209 ± 0.056"}
{"variant": "I70Y", "abundance fitness": "0.044 ± 0.052"}
{"variant": "I70L", "abundance fitness": "-0.035 ± 0.034"}
{"variant": "I39L", "abundance fitness": "-0.107 ± 0.031"}
{"variant": "I39R", "abundance fitness": "-0.526 ± 0.028"}
{"variant": "I39V", "abundance fitness": "-0.027 ± 0.029"}
{"variant": "I39M", "abundance fitness": "-0.067 ± 0.035"}
